± gives the uncertainty stated by the source.

This data set can be described thus: abundance fitness (aPCA) (normalised: wild type 0, dead -1); higher = more abundant; growth selection in yeast, the domain comes from the species named. The settings on record: Homo sapiens.
“NEDD4-like E3 ubiquitin-protein ligase WWP2 Q442K, O00308” showed an abundance fitness of 0.195 ± 0.069.

Regarding “NEDD4-like E3 ubiquitin-protein ligase WWP2 Q442L, O00308”, the abundance fitness was -0.058 ± 0.045.

The substance “NEDD4-like E3 ubiquitin-protein ligase WWP2 Q442M, O00308” yielded an abundance fitness of 0.038 ± 0.078.

For “NEDD4-like E3 ubiquitin-protein ligase WWP2 Q442N, O00308”, the abundance fitness is 0.097 ± 0.086.

As for “NEDD4-like E3 ubiquitin-protein ligase WWP2 Q442P, O00308”, the abundance fitness is -0.067 ± 0.039.

The substance “NEDD4-like E3 ubiquitin-protein ligase WWP2 Q442S, O00308” came in with an abundance fitness of 0.008 ± 0.042.

“NEDD4-like E3 ubiquitin-protein ligase WWP2 Q442T, O00308” yielded an abundance fitness of 0.048 ± 0.03.

As to “NEDD4-like E3 ubiquitin-protein ligase WWP2 Q442V, O00308”, the abundance fitness amounted to 0.093 ± 0.042.

As for “NEDD4-like E3 ubiquitin-protein ligase WWP2 Q442W, O00308”, the abundance fitness is -0.122 ± 0.072.

The substance “NEDD4-like E3 ubiquitin-protein ligase WWP2 Q442Y, O00308” displayed an abundance fitness of 0.033 ± 0.048.

“NEDD4-like E3 ubiquitin-protein ligase WWP2 Q485A, O00308” displayed an abundance fitness of -0.036 ± 0.039.

In turn, “NEDD4-like E3 ubiquitin-protein ligase WWP2 Q485C, O00308” displayed an abundance fitness of -0.071 ± 0.053.

On to “NEDD4-like E3 ubiquitin-protein ligase WWP2 Q485D, O00308”, for which the abundance fitness is -0.003 ± 0.053.

Turning to “NEDD4-like E3 ubiquitin-protein ligase WWP2 Q485E, O00308”, the abundance fitness is -0.034 ± 0.046.

Substance “NEDD4-like E3 ubiquitin-protein ligase WWP2 Q485F, O00308” returned an abundance fitness of -0.149 ± 0.075.

Consider “NEDD4-like E3 ubiquitin-protein ligase WWP2 Q485G, O00308”, for which the abundance fitness was -0.004 ± 0.035.

“NEDD4-like E3 ubiquitin-protein ligase WWP2 Q485L, O00308” displayed an abundance fitness of -0.053 ± 0.035.

In the case of “NEDD4-like E3 ubiquitin-protein ligase WWP2 Q485M, O00308”, the abundance fitness is -0.038 ± 0.048.

Substance “NEDD4-like E3 ubiquitin-protein ligase WWP2 Q485N, O00308” had an abundance fitness of 0.095 ± 0.067.

“NEDD4-like E3 ubiquitin-protein ligase WWP2 Q485P, O00308” gave an abundance fitness of -0.184 ± 0.068.

As for “NEDD4-like E3 ubiquitin-protein ligase WWP2 Q485R, O00308”, the abundance fitness was -0.028 ± 0.038.

For the substance “NEDD4-like E3 ubiquitin-protein ligase WWP2 Q485S, O00308”, the abundance fitness was -0.053 ± 0.046.

As for “NEDD4-like E3 ubiquitin-protein ligase WWP2 Q485W, O00308”, the abundance fitness is -0.149 ± 0.062.

With “NEDD4-like E3 ubiquitin-protein ligase WWP2 Q485Y, O00308”, the abundance fitness is -0.126 ± 0.072.

The substance “NEDD4-like E3 ubiquitin-protein ligase WWP2 R460A, O00308” displayed an abundance fitness of -0.072 ± 0.044.

In turn, “NEDD4-like E3 ubiquitin-protein ligase WWP2 R460C, O00308” had an abundance fitness of -0.277 ± 0.074.

In turn, “NEDD4-like E3 ubiquitin-protein ligase WWP2 R460D, O00308” displayed an abundance fitness of -0.169 ± 0.083.

As to “NEDD4-like E3 ubiquitin-protein ligase WWP2 R460E, O00308”, the abundance fitness is -0.183 ± 0.063.

As for “NEDD4-like E3 ubiquitin-protein ligase WWP2 R460F, O00308”, the abundance fitness was -0.261 ± 0.065.

“NEDD4-like E3 ubiquitin-protein ligase WWP2 R460G, O00308” came in with an abundance fitness of -0.166 ± 0.041.

“NEDD4-like E3 ubiquitin-protein ligase WWP2 R460H, O00308” registered an abundance fitness of -0.033 ± 0.081.

In turn, “NEDD4-like E3 ubiquitin-protein ligase WWP2 R460I, O00308” showed an abundance fitness of -0.036 ± 0.074.

“NEDD4-like E3 ubiquitin-protein ligase WWP2 R460K, O00308” came in with an abundance fitness of -0.088 ± 0.064.

The substance “NEDD4-like E3 ubiquitin-protein ligase WWP2 R460L, O00308” gave an abundance fitness of -0.088 ± 0.036.

“NEDD4-like E3 ubiquitin-protein ligase WWP2 R460N, O00308” registered an abundance fitness of -0.343 ± 0.073.

“NEDD4-like E3 ubiquitin-protein ligase WWP2 R460P, O00308” came in with an abundance fitness of -0.032 ± 0.06.

On to “NEDD4-like E3 ubiquitin-protein ligase WWP2 R460Q, O00308”, for which the abundance fitness was -0.104 ± 0.054.

“NEDD4-like E3 ubiquitin-protein ligase WWP2 R460S, O00308” showed an abundance fitness of -0.153 ± 0.06.

The substance “NEDD4-like E3 ubiquitin-protein ligase WWP2 R460T, O00308” had an abundance fitness of -0.032 ± 0.061.

“NEDD4-like E3 ubiquitin-protein ligase WWP2 R460V, O00308” yielded an abundance fitness of -0.137 ± 0.044.

Substance “NEDD4-like E3 ubiquitin-protein ligase WWP2 R460W, O00308” showed an abundance fitness of -0.413 ± 0.036.

In turn, “NEDD4-like E3 ubiquitin-protein ligase WWP2 R460Y, O00308” displayed an abundance fitness of -0.558 ± 0.12.

Turning to “NEDD4-like E3 ubiquitin-protein ligase WWP2 R468A, O00308”, the abundance fitness is -0.157 ± 0.035.

For the substance “NEDD4-like E3 ubiquitin-protein ligase WWP2 R468C, O00308”, the abundance fitness was -0.184 ± 0.06.

The substance “NEDD4-like E3 ubiquitin-protein ligase WWP2 R468D, O00308” gave an abundance fitness of -0.479 ± 0.06.

In the case of “NEDD4-like E3 ubiquitin-protein ligase WWP2 R468E, O00308”, the abundance fitness is -0.14 ± 0.039.

For “NEDD4-like E3 ubiquitin-protein ligase WWP2 R468G, O00308”, the abundance fitness is -0.2 ± 0.033.

With “NEDD4-like E3 ubiquitin-protein ligase WWP2 R468H, O00308”, the abundance fitness was -0.015 ± 0.08.

Substance “NEDD4-like E3 ubiquitin-protein ligase WWP2 R468I, O00308” showed an abundance fitness of -0.51 ± 0.12.

Substance “NEDD4-like E3 ubiquitin-protein ligase WWP2 R468K, O00308” registered an abundance fitness of -0.071 ± 0.071.

Regarding “NEDD4-like E3 ubiquitin-protein ligase WWP2 R468L, O00308”, the abundance fitness was -0.191 ± 0.047.

In turn, “NEDD4-like E3 ubiquitin-protein ligase WWP2 R468M, O00308” registered an abundance fitness of -0.11 ± 0.033.

In the case of “NEDD4-like E3 ubiquitin-protein ligase WWP2 R468N, O00308”, the abundance fitness was -0.208 ± 0.08.

“NEDD4-like E3 ubiquitin-protein ligase WWP2 R468Q, O00308” registered an abundance fitness of -0.111 ± 0.066.

In turn, “NEDD4-like E3 ubiquitin-protein ligase WWP2 R468S, O00308” showed an abundance fitness of -0.212 ± 0.053.

“NEDD4-like E3 ubiquitin-protein ligase WWP2 R468T, O00308” showed an abundance fitness of -0.336 ± 0.069.

In turn, “NEDD4-like E3 ubiquitin-protein ligase WWP2 R468V, O00308” returned an abundance fitness of -0.352 ± 0.036.

The values are drawn from the Human Domainome abundance scans (Beltran et al. 2025).
